Bridge positions count the residues as written; N and C are the ends. Square brackets hold non-standard residues; d marks the D form. Primed or numbered codes have the meaning given here. Ends that are not written are not given here. * marks the point of attachment. NMeBn(CF3)2 = C-terminal N-methyl bis(trifluoromethyl)benzyl amide; Glc = O-glucosyl on Ser side chain (Ser(OGlu)/Ser(OGlc)); NH(3,5-(CF3)2-benzyl) = FC(F)(F)c1cc(CN*)cc(C(F)(F)F)c1; OBzl(3,5-(CF3)2) = FC(F)(F)c1cc(CO*)cc(C(F)(F)F)c1; Glc″ = glucosyl on the serine side-chain oxygen; OBn(OMe)2 = C-terminal OBn(OMe)2 ester; Dmt = Cc1cc(O)cc(C)c1C[C@H](N)C(=O)O; NMe(benzyl) = CN(Cc1ccccc1)*; Nle = CCCC[C@H](N)C(=O)O; NHBn = c1ccc(CN*)cc1; OBn = c1ccc(CO*)cc1
B1: TyrDAlaGlyPheNleProLeuTrpNHBn(CF3)2 (peptide)
peptide: YAGFXPLW
modifications: here or on the partner: D-Ala at 2; Nle at 5 (written X); C-terminal NH-3,5-Bzl(CF3)2 amide
B2: TyrDAlaGlyPheNleProLeuTrpOBn(CF3)2 (peptide)
peptide: YAGFXPLW
modifications: here or on the partner: D-Ala at 2; Nle at 5 (written X); C-terminal O-3,5-Bzl(CF3)2 ester
B3: TyrDAlaGlyPheMet(O)ProLeuTrpOBn(CF3)2 (peptide)
peptide: YAGFMPLW
modifications: here or on the partner: D-Ala at 2; Met(O) at 5; C-terminal O-3,5-Bzl(CF3)2 ester
B4: TyrDAlaGlyPheNleProLeuTrpOBn(CF3)2 (TY018) (peptide)
peptide: YAGFXPLW
modifications: here or on the partner: D-Ala at 2; Nle (norleucine) at 5 (X); C-terminal O-3,5-Bn(CF3)2 ester
B5: TyrDAlaGlyPheMet(O)ProLeuTrpOBn(CF3)2 (TY023) (peptide)
peptide: YAGFMPLW
modifications: here or on the partner: D-Ala at 2; Met(O) (oxidized methionine) at 5; C-terminal O-3,5-Bn(CF3)2 ester

Target: δ opioid receptor of the mouse isolated vas deferens (mouse), P32300
Assay: cell-based or functional assay

δ opioid receptor of the mouse isolated vas deferens (mouse), P32300, sequence (P32300 whole entry, stated change not applied): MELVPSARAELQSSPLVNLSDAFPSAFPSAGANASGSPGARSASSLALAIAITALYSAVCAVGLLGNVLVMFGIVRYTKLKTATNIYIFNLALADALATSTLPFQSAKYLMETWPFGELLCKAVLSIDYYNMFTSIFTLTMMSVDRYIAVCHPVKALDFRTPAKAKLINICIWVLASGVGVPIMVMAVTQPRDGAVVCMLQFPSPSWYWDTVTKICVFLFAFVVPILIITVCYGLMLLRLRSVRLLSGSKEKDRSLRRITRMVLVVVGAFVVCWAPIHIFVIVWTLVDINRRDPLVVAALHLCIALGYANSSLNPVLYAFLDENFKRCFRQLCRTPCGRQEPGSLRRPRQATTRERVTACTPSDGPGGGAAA

Point of comparison: Y[dA]GFMPLW-{OBzl(3,5-(CF3)2)} [TyrDAlaGlyPheMetProLeuTrpOBn(CF3)2], MVD (δ) IC50 22 nM. Against it:
- Y[dC]GF[Nle]PCW-{NH(3,5-(CF3)2-benzyl)} (disulfide 2-7) [Tyr[DCysGlyPheNleProCys]TrpNHBn(CF3)2] — 3.9-fold higher, 85 nM
- Y[dC]GF[dC]PLW-{NH(3,5-(CF3)2-benzyl)} (disulfide 2-5) [Tyr[DCysGlyPheDCys]ProLeuTrpNHBn(CF3)2] — 2.7-fold lower, 8.3 nM
- Y[dC]GF[Nle]P[dC]W-{NH(3,5-(CF3)2-benzyl)} (disulfide 2-7) [Tyr[DCysGlyPheNleProDCys]TrpNHBn(CF3)2] — within 1.5-fold, 19 nM
- Y[dC]GFCPLW-{NH(3,5-(CF3)2-benzyl)} (disulfide 2-5) [Tyr[DCysGlyPheCys]ProLeuTrpNHBn(CF3)2] — 3.3-fold higher, 73 nM

Point of comparison: Y[dA]GFGPLW-{OBzl(3,5-(CF3)2)} (also: TFA salt) [TyrDAlaGlyPheGlyProLeuTrpOBn(CF3)2], MVD IC50 172 nM. Against it:
- Y[dA]GFMPLW-{OBzl(3,5-(CF3)2)} [TyrDAlaGlyPheMetProLeuTrpOBn(CF3)2] — 7.7-fold lower, 22.3 nM
- B1 — 13-fold lower, 13.6 nM
- Y[dA]GFS(Glc)PLW-{NH(3,5-(CF3)2-benzyl)} [TyrDAlaGlyPheSer(OGlu)ProLeuTrpNHBn(CF3)2] — 1.6-fold lower, 109 nM
- Y[dA]GF[Nle]S(Glc″)LW-{NH(3,5-(CF3)2-benzyl)} [TyrDAlaGlyPheNleSer(OGlu)LeuTrpNHBn(CF3)2] — 9.6-fold lower, 18 nM
- Y[dA]GF[Nle]PS(Glc)W-{NH(3,5-(CF3)2-benzyl)} [TyrDAlaGlyPheNleProSer(OGlu)TrpNHBn(CF3)2] — 14-fold lower, 12.7 nM
- Y[dA]GFFPLW-{OBzl(3,5-(CF3)2)} [TyrDAlaGlyPhePheProLeuTrpOBn(CF3)2] — 5.3-fold higher, 905 nM
- Y[dA]GF[dF]PLW-{OBzl(3,5-(CF3)2)} [TyrDAlaGlyPheDPheProLeuTrpOBn(CF3)2] — 2.4-fold higher, 412 nM
- Y[dA]GFLPLW-{OBzl(3,5-(CF3)2)} [TyrDAlaGlyPheLeuProLeuTrpOBn(CF3)2] — 1.7-fold lower, 101 nM
- B2 — 10-fold lower, 16.8 nM
- B3 — 5.2-fold lower, 33 nM
- Y[dA]GFMPLW-{NH(3,5-(CF3)2-benzyl)} [TyrDAlaGlyPheMetProLeuTrpNHBn(CF3)2] — 12-fold lower, 14.5 nM
- [Dmt][dA]GFMPLW-{OBzl(3,5-(CF3)2)} [DmtDAlaGlyPheMetProLeuTrpOBn(CF3)2] — 130-fold lower, 1.3 nM
- [Dmt][dA]GFMPLW-{NH(3,5-(CF3)2-benzyl)} [DmtDAlaGlyPheMetProLeuTrpNHBn(CF3)2] — 96-fold lower, 1.8 nM
- [Dmt][dA]GFMPLW-NHBn [DmtDAlaGlyPheMetProLeuTrpNHBn] — 25-fold lower, 6.9 nM

Point of comparison: H-Y[dA]GFGPLW-{OBzl(3,5-(CF3)2)} (also: TFA salt) [H-Tyr-D-Ala-Gly-Phe-Gly-Pro-Leu-Trp-O-3,5-Bzl(CF3)2], MVD (δ) opioid agonist IC50 172 nM. Against it:
- H-Y[dA]GFFPLW-{OBzl(3,5-(CF3)2)} (also: TFA salt) [H-Tyr-D-Ala-Gly-Phe-Phe-Pro-Leu-Trp-O-3,5-Bzl(CF3)2] — 5.3-fold higher, 905 nM
- H-Y[dA]GF[dF]PLW-{OBzl(3,5-(CF3)2)} (also: TFA salt) [H-Tyr-D-Ala-Gly-Phe-D-Phe-Pro-Leu-Trp-O-3,5-Bzl(CF3)2] — 2.4-fold higher, 412 nM
- H-Y[dA]GFLPLW-{OBzl(3,5-(CF3)2)} (also: TFA salt) [H-Tyr-D-Ala-Gly-Phe-Leu-Pro-Leu-Trp-O-3,5-Bzl(CF3)2] — 1.7-fold lower, 101 nM
- H-Y[dA]GFMPLW-{OBzl(3,5-(CF3)2)} (also: TFA salt) [H-Tyr-D-Ala-Gly-Phe-Met-Pro-Leu-Trp-O-3,5-Bzl(CF3)2] — 7.7-fold lower, 22.3 nM

Point of comparison: Y[dC]GF[dC]PLW-{NH(3,5-(CF3)2-benzyl)} (disulfide 2-5) [Tyr[DCysGlyPheDCys]ProLeuTrpNHBn(CF3)2 (TY037)], MVD opioid(delta) agonist IC50 8.28 nM. Against it:
- Y[dA]GFFPLW-{OBzl(3,5-(CF3)2)} [TyrDAlaGlyPhePheProLeuTrpOBn(CF3)2 (TY003)] — 110-fold higher, 905 nM
- Y[dA]GFLPLW-{OBzl(3,5-(CF3)2)} [TyrDAlaGlyPheLeuProLeuTrpOBn(CF3)2 (TY004)] — 12-fold higher, 101 nM
- Y[dA]GFMPLW-{OBzl(3,5-(CF3)2)} [TyrDAlaGlyPheMetProLeuTrpOBn(CF3)2 (TY005)] — 2.7-fold higher, 22.3 nM
- Y[dA]GFGPLW-{OBzl(3,5-(CF3)2)} [TyrDAlaGlyPheGlyProLeuTrpOBn(CF3)2 (TY006)] — 21-fold higher, 172 nM
- Y[dA]GF[dF]PLW-{OBzl(3,5-(CF3)2)} [TyrDAlaGlyPheDPheProLeuTrpOBn(CF3)2 (TY007)] — 50-fold higher, 412 nM
- B4 — 2-fold higher, 16.8 nM
- B5 — 4-fold higher, 33 nM
- Y[dA]GFMPLW-{NMe(benzyl)} [TyrDAlaGlyPheMetProLeuTrpNMeBn (TY026)] — within 1.5-fold, 7.89 nM
- Y[dA]GFMPLW-{NH(3,5-(CF3)2-benzyl)} [TyrDAlaGlyPheMetProLeuTrpNHBn(CF3)2 (TY027)] — 1.8-fold higher, 14.5 nM
- Y[dA]GFMPLW-{NMeBn(CF3)2} [TyrDAlaGlyPheMetProLeuTrpNMeBn(CF3)2 (TY028)] — within 1.5-fold, 11.2 nM
- Y[dA]GFMPLW-OBn [TyrDAlaGlyPheMetProLeuTrpOBn (TY029)] — within 1.5-fold, 7.62 nM
- Y[dA]GFMPLW-{OBn(OMe)2} [TyrDAlaGlyPheMetProLeuTrpOBn(OMe)2 (TY030)] — within 1.5-fold, 12 nM
- Y[dC]GFMPLW-{OBzl(3,5-(CF3)2)} [TyrDCysGlyPheMetProLeuTrpOBn(CF3)2 (TY031)] — 28-fold higher, 235 nM
- [Dmt][dA]GFMPLW-{NH(3,5-(CF3)2-benzyl)} [DmtDAlaGlyPheMetProLeuTrpNHBn(CF3)2 (TY032)] — 4.5-fold lower, 1.82 nM
- [Dmt][dA]GFMPLW-{OBzl(3,5-(CF3)2)} [DmtDAlaGlyPheMetProLeuTrpOBn(CF3)2 (TY033)] — 6.5-fold lower, 1.27 nM
- [Dmt][dA]GFMPLW-NHBn [DmtDAlaGlyPheMetProLeuTrpNHBn (TY034)] — within 1.5-fold, 6.85 nM
- Y[dC]GF[Nle]PCW-{NH(3,5-(CF3)2-benzyl)} (disulfide 2-7) [Tyr[DCysGlyPheNleProCys]TrpNHBn(CF3)2 (TY035)] — 10-fold higher, 84.7 nM
